In the Immune Epitope Database (IEDB):

What was measured:
[1] = molecular target: HLA-B*35:01; experiment: IEDB peptide-MHC binding, purified MHC/competitive/radioactivity; filed as Kd, often an IC50 or EC50 that approximates it; ≥ and ≤ were set here for values at or beyond the usual limits of such assays
[2] = molecular target: HLA-B*54:01; experiment: as above
[3] = molecular target: HLA-B*07:02; experiment: as above
[4] = molecular target: HLA-B*51:01; experiment: as above
[5] = molecular target: HLA-B*53:01; experiment: as above
[6] = molecular target: HLA-B*15:03; experiment: as above
[7] = molecular target: HLA-B*08:01; experiment: as above; details: source organism: Vaccinia virus WR
[8] = molecular target: HLA-A*32:01; experiment: as above; details: source organism: Vaccinia virus WR
[9] = molecular target: HLA-A*31:01; experiment: IEDB peptide-MHC binding, purified MHC/competitive/fluorescence; filed as Kd, often an IC50 or EC50 that approximates it; ≥ and ≤ were set here for values at or beyond the usual limits of such assays
[10] = molecular target: HLA-A*03:01; experiment: IEDB peptide-MHC binding, purified MHC/direct/fluorescence; filed as Kd, often an IC50 or EC50 that approximates it; ≥ and ≤ were set here for values at or beyond the usual limits of such assays
[11] = molecular target: HLA-A*11:01; experiment: as above
[12] = molecular target: HLA-A*02:12; experiment: as above; details: source organism: Bacillus cereus 03BB108
[13] = molecular target: HLA-A*02:01; experiment: IEDB peptide-MHC binding, purified MHC/competitive/fluorescence; filed as Kd, often an IC50 or EC50 that approximates it; ≥ and ≤ were set here for values at or beyond the usual limits of such assays; details: source organism: Vaccinia virus L-IPV
[14] = molecular target: HLA-A*03:01; experiment: IEDB peptide-MHC binding, purified MHC/competitive/radioactivity; filed as Kd, often an IC50 or EC50 that approximates it; ≥ and ≤ were set here for values at or beyond the usual limits of such assays; details: source organism: Vaccinia virus Copenhagen
[15] = molecular target: HLA-A*68:01; experiment: as above; details: source organism: Vaccinia virus Copenhagen
[16] = molecular target: HLA-A*11:01; experiment: as above; details: source organism: Vaccinia virus Copenhagen
[17] = molecular target: HLA-A*33:01; experiment: as above; details: source organism: Vaccinia virus Copenhagen
[18] = molecular target: HLA-A*02:06; experiment: as above; details: source organism: Vaccinia virus Copenhagen
[19] = molecular target: HLA-A*31:01; experiment: as above; details: source organism: Vaccinia virus Copenhagen
[20] = molecular target: HLA-A*02:03; experiment: as above; details: source organism: Vaccinia virus Copenhagen
[21] = molecular target: HLA-A*02:02; experiment: as above; details: source organism: Vaccinia virus Copenhagen
[22] = molecular target: HLA-A*11:01; experiment: IEDB peptide-MHC binding, purified MHC/competitive/fluorescence; ≥ and ≤ were set here for values at or beyond the usual limits of such assays; details: source organism: West Nile virus
[23] = molecular target: HLA-A*30:01; experiment: IEDB peptide-MHC binding, purified MHC/competitive/radioactivity; filed as Kd, often an IC50 or EC50 that approximates it; ≥ and ≤ were set here for values at or beyond the usual limits of such assays; details: source organism: Vaccinia virus WR
[24] = molecular target: HLA-B*15:01; experiment: as above; details: source organism: Vaccinia virus WR
[25] = source organism: Vaccinia virus WR
[26] = source organism: Vibrio vulnificus
[27] = source organism: Vaccinia virus Copenhagen
[28] = source organism: West Nile virus
[29] = source organism: Mammarenavirus juninense

**Q.** What does the source list for VPEFAKQYV?
**A.** Kd [1, 25]: ≥ 32600 nM; Kd [2, 25]: 1600 nM; Kd [3, 25]: 128 nM; Kd [4, 25]: 718 nM; Kd [5, 25]: 5150 nM

**Q.** With TPLISFFGLF as the sequence, how does the Kd [1, 25] read?
**A.** 416 nM

**Q.** What about the Kd [2, 25] of the same sequence?
**A.** 3960 nM

**Q.** What about the Kd [3, 25] of the same sequence?
**A.** 1140 nM

**Q.** What about the Kd [4, 25] of the same sequence?
**A.** 4970 nM

**Q.** What about the Kd [5, 25] of the same sequence?
**A.** 31.1 nM

**Q.** How did the Kd [6, 25] turn out when ANVNARNRF was run?
**A.** 552 nM

**Q.** RKNHIYNSF was tested. Which Kd [6, 25] did it give?
**A.** 0.132 nM

**Q.** For SQRFIFNII, which Kd [7] is on record?
**A.** 653 nM

**Q.** And the Kd [8]?
**A.** 1870 nM

**Q.** What about the Kd [6, 25] of the same sequence?
**A.** 299 nM

**Q.** MKITRPRHF was tested. Which Kd [6, 25] did it give?
**A.** 1.04 nM

**Q.** KGNVSALVK was tested. Which Kd ([9]; source organism: Vibrio vulnificus YJ016) did it give?
**A.** ≥ 20000 nM

**Q.** What about the Kd [10, 26] of the same sequence?
**A.** 1160 nM

**Q.** What about the Kd [11, 26] of the same sequence?
**A.** 184 nM

**Q.** Which results are given for GMFDWESMK?
**A.** Kd ([10]; source organism: Bacillus mycoides): 208 nM; Kd [12]: 744 nM

**Q.** Which results are given for VLFMVAWGK?
**A.** Kd ([9]; source organism: Hantaan virus 76-118): 161 nM; Kd ([10]; source organism: Amur virus): 2260 nM; Kd ([11]; source organism: Amur virus): 76 nM

**Q.** Which results are given for VVYIILAPK?
**A.** Kd ([9]; source organism: Mycobacterium leprae): 300 nM; Kd ([11]; source organism: Mycobacterium tuberculosis): 27.4 nM

**Q.** Which results are given for NLFDIPLLTV?
**A.** Kd [13]: ≤ 0.1 nM; Kd [1, 27]: ≥ 69900 nM; Kd [2, 27]: 18800 nM; Kd [3, 27]: 17100 nM; Kd [4, 27]: ≥ 69600 nM; Kd [5, 27]: ≥ 69900 nM; Kd [14]: ≥ 48000 nM; Kd [15]: ≥ 21900 nM; Kd [16]: ≥ 69800 nM; Kd [17]: 11800 nM; Kd [18]: 1.55 nM; Kd [19]: ≥ 22300 nM; Kd [20]: 0.253 nM; Kd [21]: 0.0997 nM

**Q.** How did the Kd [6, 25] turn out when RQFEKDRSF was run?
**A.** 0.143 nM

**Q.** Which results are given for KSYETEYPK?
**A.** IC50 [22]: 7880 nM; Kd [9, 28]: 126 nM; Kd [10, 28]: 728 nM; Kd [11, 28]: 7.7 nM

**Q.** Which Kd [23] does the source give for ELRDYFEQI here?
**A.** ≥ 38000 nM

**Q.** What about the Kd [24] of the same sequence?
**A.** 2190 nM

**Q.** And the Kd [7]?
**A.** 12.5 nM

**Q.** And the Kd [8]?
**A.** ≥ 77800 nM

**Q.** And the Kd [6, 25]?
**A.** 80.2 nM

**Q.** FSVSFSPSL was tested. Which Kd [6, 27] did it give?
**A.** 21.7 nM

**Q.** Which results are given for ILFYFANGI?
**A.** Kd [8]: 92.5 nM; Kd [6, 25]: 139 nM

**Q.** Which Kd [6, 25] does the source give for LSISCPNSL here?
**A.** 256 nM

**Q.** Which results are given for RSKDTHVFA?
**A.** Kd [23]: 0.0187 nM; Kd [6, 25]: 182 nM

**Q.** Which Kd [6, 25] does the source give for AMKVDANYF here?
**A.** 0.149 nM

**Q.** Which results are given for KPIMSMGDII?
**A.** Kd [1, 25]: 622 nM; Kd [2, 25]: 1980 nM; Kd [3, 25]: 6.49 nM; Kd [4, 25]: 425 nM; Kd [5, 25]: 90.7 nM

**Q.** Which results are given for TPDNFSSLI?
**A.** Kd [1, 29]: 15300 nM; Kd [2, 29]: ≥ 78100 nM; Kd [3, 29]: 11300 nM; Kd [4, 29]: 1710 nM; Kd [5, 29]: 372 nM

**Q.** For QPEKEIPEY, which Kd [1, 25] is on record?
**A.** 15.6 nM

**Q.** And the Kd [2, 25]?
**A.** ≥ 43700 nM

**Q.** And the Kd [3, 25]?
**A.** ≥ 36900 nM

**Q.** And the Kd [4, 25]?
**A.** ≥ 37700 nM

**Q.** And the Kd [5, 25]?
**A.** 45.2 nM

**Q.** With VQSFKINIF as the sequence, how does the Kd [6, 25] read?
**A.** 51.3 nM
